Literature values as cited in article PMC8295177 (Cancer discovery, 2021).
Read-outs that look alike come from different tables or passages of the source.

System: NSCLC with EGFRex20ins mutations
Conditions: cited from earlier work
[1] = 39 response-evaluable patients with advanced NSCLC and EGFRex20ins mutations, phase 1

B1: amivantamab: an intravenous bispecific antibody that targets EGFR and MET (antibody, chains of the INN, looked up, V domains shown)
VH: QVQLVESGGGVVQPGRSLRLSCAASGFTFSTYGMHWVRQAPGKGLEWVAVIWDDGSYKYYGDSVKGRFTISRDNSKNTLYLQMNSLRAEDTAVYYCARDGITMVRGVMKDYFDYWGQGTLVTVSS
VL: AIQLTQSPSSLSASVGDRVTITCRASQDISSALVWYQQKPGKAPKLLIYDASSLESGVPSRFSGSESGTDFTLTISSLQPEDFATYYCQQFNSYPLTFGGGTKVEIK
VH2: QVQLVQSGAEVKKPGASVKVSCETSGYTFTSYGISWVRQAPGHGLEWMGWISAYNGYTNYAQKLQGRVTMTTDTSTSTAYMELRSLRSDDTAVYYCARDLRGTNYFDYWGQGTLVTVSS
VL2: DIQMTQSPSSVSASVGDRVTITCRASQGISNWLAWFQHKPGKAPKLLIYAASSLLSGVPSRFSGSGSGTDFTLTISSLQPEDFATYYCQQANSFPITFGQGTRLEIK
investigator-assessed response rate (ORR) [1]: 36%
median PFS [1]: 8.3 months
median PFS (patients with NSCLC with EGFRex20ins and other EGFR mutations): 8.3
